This is an account of results in patent US20190300875A1 (University of California, published 2019).

Sequences and labels used below:
B1: Myc-CRY2 (other)
chain: MKMDKKTIVWFRRDLRIEDNPALAAAAHEGSVFPVFIWCPEEEGQFYPGRASRWWMKQSLAHLSQSLKALGSDLTLIKTHNTISAILDCIRVTGATKVVFNHLYDPVSLVRDHTVKEKLVERGISVQSYNGDLLYEPWEIYCEKGKPFTSFNSYWKKCLDMSIESVMLPPPWRLMPITAAAEAIWACSIEELGLENEAEKPSNALLTRAWSPGWSNADKLLNEFIEKQLIDYAKNSKKVVGNSTSLLSPYLHFGEISVRHVFQCARMKQIIWARDKNSEGEESADLFLRGIGLREYSRYICFNFPFTHEQSLLSHLRFFPWDADVDKFKAWRQGRTGYPLVDAGMRELWATGWMHNRIRVIVSSFAVKFLLLPWKWGMKYFWDTLLDADLECDILGWQYISGSIPDGHELDRLDNPALQGAKYDPEGEYIRQWLPELARLPTEWIHHPWDAPLTVLKASGVELGTNYAKPIVDIDTARELLAKAISRTREAQIMIGAAPDEIVADSFEALGANTIKEPGLCPSVSSNDQQVPSAVRYNGSKRVKPEEEEERDMKKSRGFDERELFSTAESSSSSSVFFVSQSCSLASEGKNLEGIQDSSDQITTSLGKNGCK
notes: not shown: Myc tag
B2: nYFP-CRY2 (N terminus of YFP fused to CRY2) (other)
chain: B1 chain
notes: BiFC construct in Arabidopsis protoplasts; not shown: N terminus of YFP
B3: Arabidopsis cryptochrome 2 (CRY2) (receptor)
chain: B1 chain
notes: also called AT1G04400
B4: Arabidopsis CIB1 (cryptochrome-interacting basic-helix-loop-helix) protein (other)
chain: MNGAIGGDLLLNFPDMSVLERQRAHLKYLNPTFDSPLAGFFADSSMITGGEMDSYLSTAGLNLPMMYGETTVEGDSRLSISPETTLGTGNFKKRKFDTETKDCNEKKKKMTMNRDDLVEEGEEEKSKITEQNNGSTKSIKKMKHKAKKEENNFSNDSSKVTKELEKTDYIHVRARRGQATDSHSIAERVRREKISERMKFLQDLVPGCDKITGKAGMLDEIINYVQSLQRQIEFLSMKLAIVNPRPDFDMDDIFAKEVASTPMTVVPSPEMVLSGYSHEMVHSGYSSEMVNSGYLHVNPMQQVNTSSDPLSCFNNGEAPSMWDSHVQNLYGNLGV
notes: also called AT4G34530
B5: human cryptochrome 1 (hCRY1) (other, UniProt Q16526 1-586, looked up)
chain: MGVNAVHWFRKGLRLHDNPALKECIQGADTIRCVYILDPWFAGSSNVGINRWRFLLQCLEDLDANLRKLNSRLFVIRGQPADVFPRLFKEWNITKLSIEYDSEPFGKERDAAIKKLATEAGVEVIVRISHTLYDLDKIIELNGGQPPLTYKRFQTLISKMEPLEIPVETITSEVIEKCTTPLSDDHDEKYGVPSLEELGFDTDGLSSAVWPGGETEALTRLERHLERKAWVANFERPRMNANSLLASPTGLSPYLRFGCLSCRLFYFKLTDLYKKVKKNSSPPLSLYGQLLWREFFYTAATNNPRFDKMEGNPICVQIPWDKNPEALAKWAEGRTGFPWIDAIMTQLRQEGWIHHLARHAVACFLTRGDLWISWEEGMKVFEELLLDADWSINAGSWMWLSCSSFFQQFFHCYCPVGFGRRTDPNGDYIRRYLPVLRGFPAKYIYDPWNAPEGIQKVAKCLIGVNYPKPMVNHAEASRLNIERMKQIYQQLSRYRGLGLLASVPSNPNGNGGFMGYSAENIPGCSSSGSCSQGSGILHYAHGDSQQTHLLKQGRSSMGTGLSGGKRPSQEEDTQSIGPKVQRQSTN
notes: Homodimerization tested with differently tagged copies (Flag-hCRY and Myc-hCRY) co-expressed in HEK293T cells; also called human CRY1

One data set concerns the target T1, Flag-CRY2 (Arabidopsis, UniProt Q96524 1-612).
T1 construct: not shown: Flag tag
Description: co-IP with antibody to Flag, HEK293T cells, dark. The source says: Homodimers are the physiologically active form of plant CRYs (8, 9), but the effect of light on CRY dimerization has not been detected in previous studies (9, 20). This could be explained by, among other interpretations, light-independent CRY dimerization or masking effects of regulatory proteins, such as BICs, on the light-dependent CRY dimerization (9, 20). We reexamined the bluelight dependence of CRY2 dimerization using multiple approaches. In the first experiment, we coexpressed Flag-CRY2 and Myc-CRY2 in HEK293T cells (21-24) and tested the interaction between the two differentially tagged CRY2s by co-IP assay. In the absence of blue light, antibody to Flag coprecipitated little Myc-CRY2 from HEK293T cells expressing similar amounts of Flag-CRY2 and Myc-CRY2 (FIG. 4B and FIG. S12A of Wang et al).

Data set [1] concerns the target T2, GFP-CRY2 (CRY2 fused to green fluorescent protein) (Arabidopsis, UniProt Q96524 1-612).
T2 construct: Expressed in Arabidopsis plants together with Myc-CRY2; not shown: green fluorescent protein
The data set is described as follows: co-IP with GFP-Trap-A from etiolated seedlings co-expressing Myc-CRY2 and GFP-CRY2, blue light 20 sec to 10 min (FIG. 9A). The source says:
GFP-Trap-A were used to immunoprecipitate GFP-CRY2. GFP-CRY2 (IP signal) and Myc-CRY2 (co-IP signal) were detected by GFP or Myc antibody, respectively. […] HEK293T cells co-expressing FLUC-CRY2 and REN-CRY2 were exposed to blue light (30 μmol·m⁻²·s⁻¹) for the time indicated, lysed, aliquots removed for the measurement of ATL (Adjusted Total Luminescence), and FLUC-CRY2 precipitated by anti-Flag antibody conjugated beads. Photodimerization of CRY2 was quantified by the dual-luciferase assay to calculate the Normalized Dimerization Ratio (NDR) by the formula: NDR=[(REN/LUC)L/(REN/LUC)D]/ATL, where LUC is the LUC luminescence detected for the precipitated FLUC-CRY2, REN is the REN luminescence detected for the co-precipitated REN-CRY2. (REN/LUC)L or (REN/LUC)D were measured in cells exposed to light or darkness, respectively. ATL (Adjusted Total Luminescence) is the cell volume-adjusted sum of LUC and REN luminescence of the cell lysates before immunoprecipitation, in which REN luminescence is converted to the LUC equivalent by the standard curve prepared by analyses of the LUC-REN fusion protein (not shown). ATL represents concentration of the CRY2 protein. […] Flag-CRY2 (IP signal) and Myc-CRY2 or GFP-BIC1 (co-IP signals) were detected by Flag and Myc or GFP antibody, respectively. […]

For data set [2], the target named is T3, cCFP-CRY2 (C terminus of cyan fluorescent protein fused to CRY2) (Arabidopsis, UniProt Q96524 1-612).
T3 construct: BiFC construct in Arabidopsis protoplasts; not shown: C terminus of cyan fluorescent protein
Description: BiFC in Arabidopsis protoplasts.

Data set [3] deals with the molecule itself. Description: yeast β-gal assay (FIG. 4A); also immunoblots of HEK293FT lysates (4B, 4C) and plant nuclear proteins (4D, 4E) after blue light. An excerpt: FIG. 4 provides data showing redox-dependent CRY dimerization, and blue-light-induced CRY and BIC interaction. (FIG. 4A) The β-galactosidase (β-gal) assay showing the blue-light-dependent formation of CRY2 dimer. Yeast cells were kept in darkness (D) or illuminated with blue light (B5, 5 μmol m⁻² s⁻¹; B25, 25 μmol m⁻² s⁻¹; B50, 50 μmol m⁻² s⁻¹) for the indicated time. (FIG. 4B) Immunoblot showing the blue-light-induced dimerization of CRY2 expressed in HEK293FT (H293) cells. The cells were lysed, divided into 12 samples and irradiated by blue light (40 μmol m⁻²s⁻¹) for the indicated durations. For β-mercaptoethanol (2-Me) treatment, 6 samples were added with 2-Me to 5% (v/v), and then all the samples were analyzed by western blot using anti-CRY2 antibody. CRY2, monomeric CRY2; (CRY2)2, CRY2 dimer; (CRY2)ₙ, CRY2 oligomer. (FIG. 4C) The H293 cell lysate were prepared in dark, irradiated with blue light for the durations indicated. For the NEM treatment, the samples were added with NEM (50 mM), and then the samples were analyzed by western blot using anti-CRY2 antibody. (FIGS. 4D and E) Dimerization and oligomerization of CRY2 proteins are blue light-induced in vivo. […]

The target in data set [4] is B3. The data set is described as follows: yeast β-gal assay, dark or blue light (FIG. 5H). The procedure:
The H293 cells were transfected with vector expressing CRY2 only (CRY2), or together with vector expression Myc-BIC1 (CRY2+BIC1) and cultured in dark for 24 hours. The cells were cracked and divided into equally 12 tubes, then treated with blue light (40 μmol m⁻² s⁻¹) for the duration indicated. The sample were analyzed by western blot using anti-CRY2 antibody and anti-Myc antibody sequentially. (FIG. 5B) β-Gal assay of yeast cells expressing indicated proteins kept in darkness (D) or irradiated with blue light (B50, 50 μmol m⁻² s⁻¹) for indicated durations. (FIG. 5C) Fluorescence images showing the formation of CRY2-GFP nuclear bodies in the protoplasts of WT, BIC1-OX line or […]. The protoplasts transformed with CRY2-GFP construct were kept in darkness overnight and then irradiated with blue light (20 μmol m⁻² s⁻¹) for the time indicated. […] Each sample contains at least 50 protoplast. Means and SD (n=3) are shown. (FIG. 5E) BiFC analysis of the blue-light-induced formation of CRY2 nuclear bodies in protoplasts of WT, BIC1-OX line or BIC2-OX line. The protoplasts transformed with cYFP-CRY2 and nYFP-CRY2 constructs were kept in darkness overnight and then irradiated with blue light (20 μmol m⁻² s⁻¹) for the time indicated. […] Each sample contains at least 50 protoplast. Means and SD (n=3) are shown. […]

Data set [5] deals with the molecule itself. Description: co-IP, HEK293T cells, control experiment.

On to B1, for which the binding result (with Flag-CRY2; in data set [1]) was “binds” in each case.

On to B2, for which the binding result in data set [2] is “binds”.

Take B3: the binding result in data set [3] is reported as “binds”.

As for B4, the binding result in data set [4] is “binds”.

For B5, the binding result in data set [5] is “binds”.
